B1: wildtype HPV31 E6 fused to the VP16 transcriptional activation domain [human papillomavirus type 31] / pep11** fused to the GAL4 DNA binding domain (parent complex)
chain 1: MFKNPAERPRKLHELSSALEIPYDELRLNCVYCKGQLTETEVLDFAFTDLTIVYRDDTPHGVCTKCLRFYSKVSEFRWYRYSVYGTTLEKLTNKGICDLLIRCITCQRPLCPEEKQRHLDKKKRFHNIGGRWTGRCIACWRRPRTETQV
chain 2: KEKEEYNSNCSCIACIGLI

Variants of: B1
Assay: mammalian two-hybrid; E6 constructs contain an additional flag-tag between E6 and the VP16-AD; RLA relative to pep11**-GAL4-BD + empty pACT set at 1.0; read off a plot

Point of comparison: chain 1 MFKNPAERPRKLHELSSALEIPYDELRLNCVYCKGQLTETEVLDFAFTDLTIVYRDDTPHGVCTKCLRFYSKVSEFRHYRYSVYGTTLEKLTNKGICDLLIRCITCQRPLCPEEKQRHLDKKKRFHNIGGRWTGRCIACWRRPRTETQV [chain 1 W78H], response ~39 RLA. Against it:
- chain 1 MFKNPAERPRKLHELSSALEIPYDELRLNCVYCKGQLTETEVLDFAFTDLTIVYRDDTPHGVCTKCLRFYSKVSEFRAYRYSVYGTTLEKLTNKGICDLLIRCITCQRPLCPEEKQRHLDKKKRFHNIGGRWTGRCIACWRRPRTETQV [chain 1 W78A] — lower, ~1.2 RLA
